Laboratory results as given in paper PMC3463765.
Several values for one entry are separate records, joined by “and”; a condition that tells them apart may be missing. Equal entries are not always repeated.

Tests used:
[1] = molecular target: horse serum butyrylcholinesterase (horse); test: native gel or EMSA
[2] = molecular target: horse serum butyrylcholinesterase (horse); test: native gel or EMSA; remark: listed apart in the source
[3] = molecular target: horse serum butyrylcholinesterase (horse); test: SDS-PAGE without reducing agent

horse serum butyrylcholinesterase (enzyme)
stoichiometry N [1]: 2 and 4
stoichiometry N [2]: 4
stoichiometry N [3]: 2
